Ends that are not written are not given here. * marks the point of attachment. Myristoyl = CCCCCCCCCCCCCC(=O)*
Experiments:
PKC-δ [1] = target: T1, PKC-δ (Homo sapiens, UniProt Q05655); experiment: PMA-induced PKC-δ membrane translocation, confocal microscopy; assay type: cell-based; parameters: inserting the open reading frame of PKC-δ into the plasmid pDsRed2-C1; expressed in transfected cells; host or cells: 293A; settings: 10 μM myristoylated peptide, PMA 15 min, FIG. 5E
Experimental: Confocal microscopy: Experimental protocols were based on those described by Edwards et al., “Carboxyl-Terminal Phosphorylation Regulates the Function and Subcellular Localization of Protein Kinase C betall,” J. Biol. Chem. 274:6461-6468 (1999), which is hereby incorporated by reference in its entirety. 293A cells were grown in a chamber slide system (Nalge-Nunc International Corp., Naperville, Ill.). Cells were transfected with pEGFP-hBVR and/or the plasmid expressing Ds2-Red-PKC-δ fusion protein. After a 24 h starvation period, cells were fixed for 10 min in 4% Para-formaldehyde in PBS and permeabilized with 1% Triton X-100 in PBS. The cells were mounted with Vectashield (Vector Laboratories, Inc. Burlingame, Calif.), containing DAPI to visualize the nuclei. Non-transfected cells were permeabilized as above, treated with 1:150 dilution of polyclonal anti-PKC-δ antibodies, washed, blocked, and then treated with polyclonal anti-hBVR antibodies. The PBS-washed cells were then treated with Rhodamine-red-conjugated donkey anti-rabbit IgG antibodies (Jackson ImmunoResearch, West Grove, Pa.) for 30 min, followed by mounting. A Leica TCS SP (model DMRE) confocal microscope was used (Maines et al., “Human Biliverdin Reductase: A Previously Unknown Activator of Protein Kinase C-βII,” J. Biol. Chem. 282:8110-8122 (2007), which is hereby incorporated by reference in its entirety).

PKC-ζ = target: T2, PKC-ζ (Homo sapiens, UniProt Q05513); experiment: PKC-ζ kinase assay in vitro; assay type: biochemical; settings: MBP substrate, higher concentrations required than for PKC-δ, FIG. 5D
T2 construct: purchased Millipore
T2 sequence (Q05513 1-592): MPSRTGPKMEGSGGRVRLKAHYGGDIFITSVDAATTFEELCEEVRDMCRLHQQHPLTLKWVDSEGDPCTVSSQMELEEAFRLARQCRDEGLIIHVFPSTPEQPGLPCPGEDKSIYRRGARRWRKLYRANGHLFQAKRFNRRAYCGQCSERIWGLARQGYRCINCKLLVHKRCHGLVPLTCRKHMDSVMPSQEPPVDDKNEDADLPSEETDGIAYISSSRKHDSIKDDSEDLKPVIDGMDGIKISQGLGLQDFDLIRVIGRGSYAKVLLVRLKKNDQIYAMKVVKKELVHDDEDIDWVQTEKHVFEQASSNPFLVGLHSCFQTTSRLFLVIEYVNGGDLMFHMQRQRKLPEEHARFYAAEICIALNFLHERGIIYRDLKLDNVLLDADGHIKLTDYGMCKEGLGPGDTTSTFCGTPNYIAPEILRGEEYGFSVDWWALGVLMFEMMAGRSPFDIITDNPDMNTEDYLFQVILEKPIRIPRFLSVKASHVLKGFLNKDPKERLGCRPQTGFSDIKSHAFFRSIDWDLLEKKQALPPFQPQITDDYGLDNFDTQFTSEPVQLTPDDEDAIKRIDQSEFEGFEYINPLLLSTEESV
Experimental: Measurement of PKC-β and PKC-ζ activities. Recombinant PKC-βII (Calbiochem) was assayed in vitro in 20 mM HEPES pH 7.2, 15 mM MgCl2, 0.2 mM CaCl2, 1 mM DTT, 25 mM β-glycerophosphate, 50 μg/ml phosphatidylserine and 5 μg/ml diacylglycerol, using 12.5 μM MBP as substrate, using 5 ng of enzyme per 50 μl reaction. 100 μM ATP (containing [γ^32P]-ATP (as above) was used to start the reaction, and incorporation was determined using p81 filter binding (Maines et al., “Human Biliverdin Reductase: A Previously Unknown Activator of Protein Kinase C-βII,” J. Biol. Chem. 282:8110-8122 (2007), which is hereby incorporated by reference in its entirety). Similarly, recombinant PKC-ζ(Millipore) was assayed in 20 mM MOPS pH 7.2, 15 mM MgCl2, 0.2 mM EDTA, with 12.5 μM MBP as substrate, again using 5 ng of enzyme per 50 μl reaction (Lerner-Marmarosh et al., “Regulation of TNF-alpha-Activated PKC-zeta Signaling By the Human Biliverdin Reductase: Identification of Activating and Inhibitory Domains of the Reductase,” FASEB J. 21:3949-3962 (2007), which is hereby incorporated by reference in its entirety). Otherwise, reaction conditions were as for PKC-βII.

PKC-δ [2] = target: T1, PKC-δ; experiment: PKC-δ activity assay in situ in 293A cells; assay type: cell-based; parameters: The human PKC-δ open reading frame was also cloned in the same vectors; expressed in transfected cells; host or cells: HEK 293A; settings: myristoylated peptide, last 2 h of starvation, FIG. 5B
Experimental: The PKC-δ activity assay in situ was performed by a modification of procedures detailed by Williams and Schrier (Williams et al., Glucose-Induced Protein Kinase C Activity Regulates Arachidonic Acid Release and Eicosanoid Production by Cultured Glomerular Mesangial Cells,” J. Clin. Invest. 92:2889-2896 (1993), which is hereby incorporated by reference in its entirety). Cells were seeded into 48-well plates and transfected with 0.1 μg/well pcDNA3-hBVR. After 24 h, the medium was replaced with a starvation medium (0.1% serum) and incubation continued for another 24 h to synchronize cells. In some wells, PKC inhibitor Rottlerin (20 μM) was added 30 min before addition of PMA (100 nM) for 15 min. In some wells, hBVR-derived peptides were introduced to cells in their myristoylated form. Cells were washed with medium and incubated for 10 min at 30° C. in 50 μl of kinase assay buffer (137 mM NaCl, 5.4 mM KCl, 10 mM MgCl2, 0.3 mM Na2HPO4, 0.4 mM KH2PO4, 25 mM β-glycerophosphate, 5.5 mM D-glucose, 5 mM EGTA, 1 mM CaCl2, 20 mM HEPES (pH 7.2), 50 μg/ml digitonin, 120 μg/ml of PKC-δ specific substrate (ARRKRKGSFFGG; SEQ ID NO: 52) and 100 μM ATP labeled with 10 μCi/ml [γ-^32P]-ATP). The reaction was stopped with the addition of 25 μl of ice-cold 30% (wt/vol) TCA. The TCA-soluble fraction samples were transferred to p81 phospho-cellulose filters. […]

T1 sequence (Q05655 whole entry, the tested form may be a part): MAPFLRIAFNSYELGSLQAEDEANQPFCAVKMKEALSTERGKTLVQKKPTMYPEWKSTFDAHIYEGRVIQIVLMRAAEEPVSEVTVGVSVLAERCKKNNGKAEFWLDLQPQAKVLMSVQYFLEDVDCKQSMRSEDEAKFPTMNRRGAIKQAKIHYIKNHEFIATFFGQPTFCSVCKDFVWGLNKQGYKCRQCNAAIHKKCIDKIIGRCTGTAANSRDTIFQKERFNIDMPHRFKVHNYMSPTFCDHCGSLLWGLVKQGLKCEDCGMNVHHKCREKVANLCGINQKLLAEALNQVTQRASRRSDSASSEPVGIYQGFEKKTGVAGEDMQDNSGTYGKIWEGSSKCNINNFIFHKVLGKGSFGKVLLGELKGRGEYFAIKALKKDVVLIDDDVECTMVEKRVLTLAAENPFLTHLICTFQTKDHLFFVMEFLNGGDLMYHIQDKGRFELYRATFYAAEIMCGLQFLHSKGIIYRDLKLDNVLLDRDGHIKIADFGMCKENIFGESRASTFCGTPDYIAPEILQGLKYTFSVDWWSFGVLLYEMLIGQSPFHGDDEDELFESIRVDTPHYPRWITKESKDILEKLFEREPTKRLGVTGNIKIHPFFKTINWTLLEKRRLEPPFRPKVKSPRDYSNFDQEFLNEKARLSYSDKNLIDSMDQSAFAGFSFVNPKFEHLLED

PKC-δ translocation to the cell membrane upon PMA (PKC-δ [1]): effectively inhibited
effect of inhibitory peptide on PKC-ζ activity (PKC-ζ): responsive
PKC-δ activity in cells transfected with pcDNA-PKC-δ and stimulated with PMA (PKC-δ [2]): inhibitory activity
Sequence: KRNRYLSF (Myristoyl-KRNRYLSF)

Source: patent US9598677B2, “Use of human biliverdin reductase and fragments thereof for the treatment of protein kinase C-delta and ERK related conditions” (University of Rochester, priority 2009, dated 2017)
